This is an account of results in the supplement of paper PMC9170038.

The test system of this data set is MS2 coat protein. The experiment in a line: apparent KD of MS2 coat protein; designed switch direction (-1 OFF switch, 1 ON switch): 1; higher = weaker reporter binding. An outline of the steps: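 Designed RNA switches were transcribed on Illumina chips by stalled E. coli RNA polymerase and titrated with SNAP-549-labelled MS2 coat protein from 0.7 or 1.5 nM, doubling to 3 µM. Step length ran from 0.8–1.5 h at the lowest concentration to 10–20 min at the highest. The apparent KD is the median over clusters for each design, from curve-fitted normalised cluster fluorescence.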

Setting [1] is: input ligand: microRNA oligo, concentration not stated.
[2] abbreviates: Eterna round: R95, input ligand: FMN 200 uM.
Where [3] appears, read: Eterna round: R95, input ligand: microRNA oligo, concentration not stated.
Where [4] appears, read: Eterna round: R95, input ligand: none.

On to “UGACACACGGCAGGAUAUCCUUAGCAAAGCUAAGGAGAAGGGCCUCAUGUCGUGGAAACGUGACAUGAGGAUCACCCAUGUUGC [Omei SS(NG)1 Cv7] (Eterna round: R96, puzzle: Same State NG 1)”, for which the “apparent KD of MS2 coat protein” value is, setting by setting: (input ligand: FMN 200 uM) 0.154 µM; under setting [1], 0.0181 µM; (input ligand: none) 0.085 µM.
The matching figures for “UGACACACGGCAGGAUAUCGUUAGCAAAGCUAACGAGAAGGGCCUCAUGUCGUGGAAACGUGACAUGAGGAUCACCCAUGUUGC [Omei SS(NG)1 Cv10] (Eterna round: R96, puzzle: Same State NG 1)”: 0.204 µM, 0.0124 µM and 0.0537 µM.
The corresponding values for “UGCCUGUCCGAAGGAUAUCUCAGCGAUCUUUUGGGAGAAGGUCGGAUGCAACAUGAGGAUCACCCAUGUGUAUAUAUCGCUGAC [Eternabot solution 48] (Eterna round: R96, puzzle: Same State NG 1)” are 0.0177 µM, 0.0139 µM and 0.0201 µM.
For the sequence “UGCUACUGGGUAGGAUAUUUAGGAUAUGGGAAAGACUAAGUCUGUAGGUCACCUAACCCAGAAGGAGAGAAGGACCAUUCAGCU [pwkr ssNG2 2FMN + F9.33] (Eterna round: R96, puzzle: Same State NG 2)”, the “apparent KD of MS2 coat protein” value is, setting by setting: (input ligand: FMN 200 uM) 0.0295 µM; under setting [1], 0.0553 µM; (input ligand: none) 0.0327 µM.
The matching figures for “UGCUAGGAUAUCUUGAGGAUCACCCAGGAGAAGGAGUAAAGUUAGGAUAUCCUGAGGAUCACCCAGGAGAAGGAGCACAUACUC [pwkr ssNG3 DX 2xF5 +2xFMN.14] (Eterna round: R96, puzzle: Same State NG 3)”: 0.0507 µM, 0.0798 µM and 0.0584 µM.
Consider “UGGAGACAUCAAGGAUAUGCUACCGUUUCGGUAGCAGAAGGUGAUCACAUGAGGAUCACCCAUGUAUGCAUGCGUGAGCGUGCU [JL SSNG1 3.53] (Eterna round: R96, puzzle: Same State NG 1)”, for which the “apparent KD of MS2 coat protein” value (input ligand: FMN 200 uM) is 0.779 µM, the “apparent KD of MS2 coat protein” value under setting [1] was found to be 0.0327 µM and the “apparent KD of MS2 coat protein” value (input ligand: none) came to 0.0354 µM.
Turning to “UGGAUCUAGGCUUGCCUGGGUCCAUGUUGACAUGAGGAUCACCCAUGUGUAUUUUAUAAGCUUUUUGUUUGUCAACU [JL A Humble Attempt mod 8] (puzzle: Sensor for hsa-mir-208a)”, the “apparent KD of MS2 coat protein” value under setting [2] turned out to be 0.0257 µM, the “apparent KD of MS2 coat protein” value under setting [3] was determined as 0.0128 µM and the “apparent KD of MS2 coat protein” value under setting [4] was determined as 0.0284 µM.
Turning to “UGGCAACAUGAGGAUCACCCAUGUCAAACUAAUCGAGGAUAUGGGAACGAACAAGAGAAACUAGAAGGCGAACUUG [Altered State 1-11 - Jieux - Same State 1] (puzzle: Same State 1)”, the “apparent KD of MS2 coat protein” value is, setting by setting: under setting [2], 0.122 µM; under setting [3], 0.137 µM; under setting [4], 0.118 µM.
Turning to “UGGCUCAGACGAGGAUAUAUGUCUCGAGCUUCGGCUCGAGACAUGAGGAUCACCCAUGUAAUAACAUAGAAGGCGUCUGAGCCA [SSNG2/1-A2] (Eterna round: R96, puzzle: Same State NG 2)”, the “apparent KD of MS2 coat protein” value came to 0.0221 µM (input ligand: FMN 200 uM), 0.0252 µM under setting [1] and 0.0372 µM (input ligand: none).
As to “UGGCUCAGACGAGGAUAUGAUCAUGGCGCUUCGGCGCAUACAUGAGGAUCACCCAUGUAAAGUGAUCAGAAGGCGUCUGAGCCA [SSNG2/7-A2] (Eterna round: R96, puzzle: Same State NG 2)”, the “apparent KD of MS2 coat protein” value came out at 0.0132 µM (input ligand: FMN 200 uM), 0.0116 µM under setting [1] and 0.0177 µM (input ligand: none).
The corresponding values for “UGGCUCAGACUAGGAUAUAUGCGAUCACAUGAGGAUCACCCAUGUCUCGAGCUUCGGCUCGAGGCAUAGAAGGAGUCUGAGCCA [SSNG2/4-D2] (Eterna round: R96, puzzle: Same State NG 2)” are 0.0144 µM, 0.0346 µM and 0.0565 µM.
The matching figures for “UGGCUCAGAGCAGGAUAUACGUGGUCACAUGAGGAUCACCCAUGUCUCGAGCUUCGGCUCGAGGCGUAGAAGGGCUCUGAGCCA [SSNG2/6-B2] (Eterna round: R96, puzzle: Same State NG 2)”: 0.11 µM, 0.187 µM and 0.305 µM.
In the case of “UGGCUGGUGCUAGGAUAUGCAUGAGGAAUCCUCGUAGAAGGAGCACGACAUGAGGAUCACCCAUGUAGCCGUCCGUAGACGGCU [salish99_SSNG1_r04_009] (Eterna round: R96, puzzle: Same State NG 1)”, the “apparent KD of MS2 coat protein” value reads like this: (input ligand: FMN 200 uM) 0.0987 µM; under setting [1], 0.0263 µM; (input ligand: none) 0.0918 µM.
As for “UGGUACAUGGGAGGAUAUCUCAUGGUGACAUGAGGAUCACCCAUGUAGUUGGACCGGAAACGGUGAGAGAAGGCCCAUGUACCU [JL SSNG1 3.74] (Eterna round: R96, puzzle: Same State NG 2)”, the “apparent KD of MS2 coat protein” value by setting is: (input ligand: FMN 200 uM) 0.0721 µM; under setting [1], 0.0683 µM; (input ligand: none) 0.0959 µM.
The matching figures for “UGGUACAUGGGAGGAUAUCUCGUAGAGACAUGAGGAUCACCCAUGUAGAUGGCCGGUAACCGGGAAGAGAAGGCCCAUGUACCU [JL SSNG1 3.66] (Eterna round: R96, puzzle: Same State NG 2)”: 0.203 µM, 0.0561 µM and 0.0826 µM.
As for “UGGUACAUGGGAGGAUAUGGAGUUGAGACAUGAGGAUCACCCAUGUUAUAAAAGCCGAGAGGCAACUAGAAGGCCCAUGUACCU [JL SSNG1 3.92] (Eterna round: R96, puzzle: Same State NG 2)”, the “apparent KD of MS2 coat protein” value turned out to be 0.0102 µM (input ligand: FMN 200 uM), 0.0499 µM under setting [1] and 0.0629 µM (input ligand: none).
The matching figures for “UGGUACAUGGGAGGAUAUGGGCAAGAGACAUGAGGAUCACCCAUGUUAUAAAAGCCGAGAGGCAUCUAGAAGGCCCAUGUACCU [JL SSNG1 3.90] (Eterna round: R96, puzzle: Same State NG 2)”: 0.0146 µM, 0.0385 µM and 0.0554 µM.
Turning to “UGGUACAUGGGAGGAUAUGGGUUGAUGACAUGAGGAUCACCCAUGUUAAAUAUGCCGAGAGGCAACUAGAAGGCCCAUGUACCU [JL SSNG1 3.99] (Eterna round: R96, puzzle: Same State NG 2)”, the “apparent KD of MS2 coat protein” value was determined as 0.0627 µM (input ligand: FMN 200 uM), 1.32 µM under setting [1] and 1.08 µM (input ligand: none).
Turning to “UGUAAACAUGAGGAUCACCCAUGUAAUAUAAUGGGAGGAUAUCUGAAUUAAUUAAAUUAAGGAGAAGGCCUAAUGU [Mat - Same State 1 - Mod of Eli - D47] (puzzle: Same State 1)”, the “apparent KD of MS2 coat protein” value worked out at 0.0532 µM under setting [2], 0.288 µM under setting [3] and 0.482 µM under setting [4].
The matching figures for “UGUCCAGCCUGAGCUGGACAAAAGCAUGUACAUGAGGAUCACCCAUGUUCAUGUACAAGCUUUUUGCUCGUCUUAGA [salish99_208a_r3_064] (puzzle: Sensor for hsa-mir-208a)”: 0.48 µM, 0.0158 µM and 0.587 µM.
Turning to “UGUUAGUAGACAGGAUAUUGAAUGUUAAGUAUUAACAUGAGGAUCACCCAUGUAUUAGAUUGGUACAAGAAGGGUCAAGUUUGU [JR_SSNG2_Sub012] (Eterna round: R96, puzzle: Same State NG 2)”, the “apparent KD of MS2 coat protein” value under setting [1] was 0.242 µM.
On the same count and under the same terms, with “UGUUGUAUUACAGGAUAUCUAGUAUUGUUAUUUAGAGAAGGGUAUUCACAUGAGGAUCACCCAUGUAUAUACGAGGAAGUUGUG [JMF's solution 40] (Eterna round: R96, puzzle: Same State NG 1)” the figure was 0.0288 µM; with “UGUUGUAUUACAGGAUAUCUAUGAUUUUUGUUUAGAGAAGGGUAUUCACAUGAGGAUCACCCAUGUAUAUACGAGGAAGUUGUG [JMF's solution 66] (Eterna round: R96, puzzle: Same State NG 1)”, 0.0424 µM.
For “UGUUGUAUUACAGGAUAUCUAUUAAUUUUAUUUAGAGAAGGGUAUUCACAUGAGGAUCACCCAUGUAUAUACGAGGAAGUUGUG [JMF's solution 13] (Eterna round: R96, puzzle: Same State NG 1)”, the “apparent KD of MS2 coat protein” value under setting [1] came out at 0.0387 µM.
As for “UGUUGUAUUACAGGAUAUCUAUUAGUUUCAUUUAGAGAAGGGUAUUCACAUGAGGAUCACCCAUGUAUAUACGAGGAAGUUGUG [JMF's solution 95] (Eterna round: R96, puzzle: Same State NG 1)”, the “apparent KD of MS2 coat protein” value by setting is: (input ligand: FMN 200 uM) 0.055 µM; under setting [1], 0.0444 µM; (input ligand: none) 0.0596 µM.
With “UGUUGUAUUACAGGAUAUCUAUUAUUUUUAUUUAGAGAAGGGUAUUCACAUGAGGAUCACCCAUGUAUAUACGAGGAAGUUGUG [JMF's solution 6] (Eterna round: R96, puzzle: Same State NG 1)”, the “apparent KD of MS2 coat protein” value under setting [1] was 0.0427 µM.
Regarding “UGUUGUUACGCAGGAUAUGGUCACAUGAGGAUCACCCAUGUAUUGUCGAUGCUAUGUGGAUUUGAUCAGAAGGGCGGGUUAACA [SameState NG2 #100] (Eterna round: R96, puzzle: Same State NG 2)”, the “apparent KD of MS2 coat protein” value is 0.0638 µM (input ligand: FMN 200 uM), 0.0889 µM under setting [1] and 0.103 µM (input ligand: none).
The matching figures for “UGUUUGUUGUGAGGAUAUACGUACACCCUACAUGAGGAUCACCCAUGUUGUUCCCUUGAUUGUUGGUAGAAGGCACUUGGUUAU [JR_SSNG2_Sub049] (Eterna round: R96, puzzle: Same State NG 2)”: 0.216 µM, 0.122 µM and 0.118 µM.
